Reference: paper PMC11878559

Target: StbD antitoxin of plasmid pHNSHP45 (p45), untagged (plasmid pHNSHP45 (p45), studied in E. coli)
Assay: tricine-SDS-PAGE of the purified StbDE complex

## StbD antitoxin of plasmid pHNSHP45 (p45), untagged (natural protein)
  stoichiometry N: 2
